B1: IL-35: heterodimeric protein of p35 subunit from IL-12 and EBI3 (protein, UniProt P29459 23-219; Q14213 21-229, looked up)
Interleukin-12 subunit alpha: RNLPVATPDPGMFPCLHHSQNLLRAVSNMLQKARQTLEFYPCTSEEIDHEDITKDKTSTVEACLPLELTKNESCLNSRETSFITNGSCLASRKTSFMMALCLSSIYEDLKMYQVEFKTMNAKLLMDPKRQIFLDQNMLAVIDELMQALNFNSETVPQKSSLEEPDFYKTKIKLCILLHAFRIRAVTIDRVMSYLNAS
Interleukin-27 subunit beta: RKGPPAALTLPRVQCRASRYPIAVDCSWTLPPAPNSTSPVSFIATYRLGMAARGHSWPCLQQTPTSTSCTITDVQLFSMAPYVLNVTAVHPWGSSSSFVPFITEHIIKPDPPEGVRLSPLAERQLQVQWEPPGSWPFPEIFSLKYWIRYKRQGAARFHRVGPIEATSFILRAVRPRARYYVQVAAQDLTDYGELSDWSLPATATMSLGK
B2: IL-27: recombinant cytokine, heterodimer of IL27A (p28) and EBI3 (protein, UniProt Q8NEV9 29-243; Q14213 21-229, looked up)
Interleukin-27 subunit alpha: FPRPPGRPQLSLQELRREFTVSLHLARKLLSEVRGQAHRFAESHLPGVNLYLLPLGEQLPDVSLTFQAWRRLSDPERLCFISTTLQPFHALLGGLGTQGRWTNMERMQLWAMRLDLRDLQRHLRFQVLAAGFNLPEEEEEEEEEEEEERKGLLPGALGSALQGPAQVSWPQLLSTYRLLHSLELVLSRAVRELLLLSKAGHSVWPLGFPTLSPQP
Interleukin-27 subunit beta: RKGPPAALTLPRVQCRASRYPIAVDCSWTLPPAPNSTSPVSFIATYRLGMAARGHSWPCLQQTPTSTSCTITDVQLFSMAPYVLNVTAVHPWGSSSSFVPFITEHIIKPDPPEGVRLSPLAERQLQVQWEPPGSWPFPEIFSLKYWIRYKRQGAARFHRVGPIEATSFILRAVRPRARYYVQVAAQDLTDYGELSDWSLPATATMSLGK
B3: IL-7: recombinant cytokine (protein, UniProt P13232 26-177, looked up)
Interleukin-7: DCDIEGKDGKQYESVLMVSIDQLLDSMKEIGSNCLNNEFNFFKRHICDANKEGMFLFRAARKLRQFLKMNSTGDFDLHLLKVSEGTTILLNCTGQVKGRKPAALGEAQPTKSLEENKSLKEQKKLNDLCFLKRLLQEIKTCWNKILMGTKEH
B4: IL-23: recombinant cytokine, P19 (SEQ ID NO: 1) and P40 (SEQ ID NO: 2) subunits (protein)
chain 1: RAVPGGSSPAWTQCQQLSQKLCTLAWSAHPLVGHMDLREEGDEETTNDVPHIQCGDGCDPQGLRDNSQFCLQRIHQGLIFYEKLLGSDIFTGEPSLLPDSPVGQLHASLLGLSQLLQPEGHHWETQQIPSLSPSQPWQRLLLRFKILRSLQAFVAVAARVFAHGAATLSP
chain 2: IWELKKDVYVVELDWYPDAPGEMVVLTCDTPEEDGITWTLDQSSEVLGSGKTLTIQVKEFGDAGQYTCHKGGEVLSHSLLLLHKKEDGIWSTDILKDQKEPKNKTFLRCEAKNYSGRFTCWWLTTISTDLTFSVKSSRGSSDPQGVTCGAATLSAERVRGDNKEYEYSVECQEDSACPAAEESLPIEVMVDAVHKLKYENYTSSFFIRDIIKPDPPKNLQLKPLKNSRQVEVSWEYPDTWSTPHSYFSLTFCVQVQGKSKREKKDRVFTDKTSATVICRKNASISVRAQDRYYSSSWSEWASVPCS
modifications: P19, UniProt Q9NPF7 20-189; P40, UniProt P29460 23-328

Key:
[1] = system: previously expanded human T cells from three healthy donors; assay: Cytokines, modulators and agonist antibodies with IL-2 on T cell number and memory phenotype; type: cell-based; settings: for percent naïve and central memory T cells at Day 6: cytokine plus 300 IU/mL IL-2; for CD3+ cells/mL on Day 6: cytokine plus 300 IU/mL IL-2 vs IL-2 alone
Method: PBMC from three healthy donors were activated, expanded, and cryopreserved as described in Example 11. […] As previously described, stimulation of the healthy donor T cells prior to cryopreservation were carried out with anti-CD3 (OKT3) stimulation in order to mimic conditions present in the tumor microenvironment (TME).
Cells were next seeded into gas permeable 100M culture vessels and expanded for 7-14 days to achieve a large bank of T cells, and cryopreserved.
Cells were maintained in culture for 6 days, with a 50% medium exchange occurring at 3 days post culture initiation.
At the end of the culture period for all culture conditions, cells were assessed for cell count and sub-phenotypes of naïve and central memory T cells by flow cytometry by staining with CD45RA and CCR7 (naïve, CD45RA+ CCR7+; “central” memory, CD45RA-CCR7+).

[2] = system: previously expanded human T cells from three healthy donors; assay: Effect of T cell adjuvants on T cell viability (total viable CD3+ cell count); type: cell-based; settings: 62.5 IU/ml-1000 IU/ml
Method: Cells were expanded from PBMC derived from Ficoll gradient separation from three healthy donor's apheresis material. […] Because the studies were carried out in healthy donors, stimulation of the T cells was carried out with anti-CD3 (OKT3) stimulation in order to mimic conditions present in the tumor microenvironment (TME).
Cells were next seeded into gas permeable 100M culture vessels and expanded for 7-14 days to achieve a large bank of T cells, and cryopreserved. […] Half of wells were additionally supplemented with 50 ng/mL OKT3, a human anti-CD3 monoclonal antibody. In total, 15 test adjuvant agents were tested for their impact on cell viability in the presence and absence of anti-CD3 activation (see Table E3). Cells were cultured for 6 days total, including a 50% medium exchange on culture day 3, and monitored for total viable CD3+ cell count.

[3] = at each of three tested concentrations (3.9, 250, and 1000 IU/mL)

Row | Molecule | percent naïve and central memory T cells at Day 6 [1] | CD3+ cells/mL on Day 6 [1] | CD3+ cell number [1, 3] | percent naïve and central memory T cells [1, 3] | dose response of cell number [2]
1 | B1 | measured increase in the percent naïve and central memory T cells | increase in CD3+ cells/mL on Day 6 | – | – | –
2 | B2 | measured increase in the percent naïve and central memory T cells | increase in CD3+ cells/mL on Day 6 | significant increase in CD3+ cell number | significant increase in CD3+ cell number as well as percent naïve and central memory T cells | –
3 | B3 | measured increase in the percent naïve and central memory T cells | increase in CD3+ cells/mL on Day 6 | – | – | dose dependent response, wherein cell number increased with increasing concentration
4 | B4 | measured increase in the percent naïve and central memory T cells | increase in CD3+ cells/mL on Day 6 | – | – | –

— patent publication US20260240999A1, “METHODS FOR EX VIVO ENRICHMENT AND EXPANSION OF TUMOR REACTIVE T CELLS AND RELATED COMPOSITIONS THEREOF” (H. LEE MOFFITT CANCER CENTER AND RESEARCH INSTITUTE, INC., priority 2022, published 2026)
